{"source": "the supplement of paper PMC12042874", "note": "± gives the uncertainty stated by the source."}
{"test": "amyloid nucleation score (Sup35N fusion, yeast selection) (log enrichment); library NNK3; higher = more nucleation; inactive = no reads after selection", "outline": "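Peptides of 20 random codons fused to Sup35N were expressed in psi-negative yeast, induced 24 hours with 100 μM copper sulfate, then grown 7 days at 30°C on medium lacking adenine and uracil. Input and output plasmid inserts were Illumina-sequenced. Nucleation score is the DiMSum log enrichment of output over input reads, centred on the mode score of non-aggregating sequences, excluding sequences with under 100 input reads. Random libraries had three technical output replicates.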"}
{"substance": "SFSWLTFPRGSDNFQDWHCI", "amyloid nucleation score": "0.56 ± 0.31"}
{"substance": "SFSYNAQLYTQVVMSRYKMR", "amyloid nucleation score": "-0.193 ± 0.48"}
{"substance": "SFTYTRQSGSNLEAVGTFPH", "amyloid nucleation score": "-0.373 ± 0.69"}
{"substance": "SFVQRVSLLMSVSVFETASS", "amyloid nucleation score": "inactive"}
{"substance": "SFVSSMCVTGEKVEGSRPCC", "amyloid nucleation score": "inactive"}
{"substance": "SFYYLVKLYSLSSSIRLFRS", "amyloid nucleation score": "inactive"}
{"substance": "SGAQARDV", "amyloid nucleation score": "inactive"}
{"substance": "SGCLFAYSWSGCTLVRYDVF", "amyloid nucleation score": "-0.416 ± 0.45"}
{"substance": "SGCRLLVVECPASCCWDITT", "amyloid nucleation score": "inactive"}
{"substance": "SGCVKLVVNTCLRYY", "amyloid nucleation score": "inactive"}
{"substance": "SGDLMEGGEYF", "amyloid nucleation score": "inactive"}
{"substance": "SGFKG", "amyloid nucleation score": "inactive"}
{"substance": "SGGGIPGTLGSGDPSSPNTQ", "amyloid nucleation score": "inactive"}
{"substance": "SGGYLYRSSLSTVNSEDAMV", "amyloid nucleation score": "inactive"}
{"substance": "SGISIVIPFPRGVQMT", "amyloid nucleation score": "-0.47 ± 1"}
{"substance": "SGIVLESLLISRFFKGFHRD", "amyloid nucleation score": "0.926 ± 0.25"}
{"substance": "SGLFWRTLEPLNSVDRFYG", "amyloid nucleation score": "inactive"}
{"substance": "SGLSSRNSYTFVSKRVVGVR", "amyloid nucleation score": "inactive"}
{"substance": "SGLWHRILCSGRPTGYTQWV", "amyloid nucleation score": "inactive"}
{"substance": "SGLYMCRISFSPLIVMIVYG", "amyloid nucleation score": "1.3 ± 0.096"}
{"substance": "SGMKWYLRLYV", "amyloid nucleation score": "inactive"}
{"substance": "SGNDISCPATSIHFRVGVRS", "amyloid nucleation score": "inactive"}
{"substance": "SGQSNDCVMDVWMDM", "amyloid nucleation score": "inactive"}
{"substance": "SGRSRWNAH", "amyloid nucleation score": "inactive"}
{"substance": "SGSGWKICRNSHAGAVFYSR", "amyloid nucleation score": "inactive"}
{"substance": "SGSSVPSLYCVDYAVDG", "amyloid nucleation score": "inactive"}
{"substance": "SGSVNIHSWCGFNSWT", "amyloid nucleation score": "inactive"}
{"substance": "SGTHNKVSTRMFGWNFI", "amyloid nucleation score": "0.584 ± 0.11"}
{"substance": "SGTNLFRF", "amyloid nucleation score": "inactive"}
{"substance": "SGTPVPAYSTSWQQNWVKQC", "amyloid nucleation score": "inactive"}
{"substance": "SGYLYFFLRSVDCRFLTSSL", "amyloid nucleation score": "inactive"}
{"substance": "SHECHSFLHVLFNVACSWGG", "amyloid nucleation score": "inactive"}
{"substance": "SHGLVIVRTKRPSNGFENGW", "amyloid nucleation score": "inactive"}
{"substance": "SHPASVFGGKRMGCCSRPKG", "amyloid nucleation score": "-0.304 ± 1.1"}
{"substance": "SHRNTKKFMEWIFLYFIPTM", "amyloid nucleation score": "0.064 ± 0.62"}
{"substance": "SHYSSWVSRDRWSNTEFGMV", "amyloid nucleation score": "inactive"}
{"substance": "SIADRMHFLWVGEGGTRDYA", "amyloid nucleation score": "inactive"}
{"substance": "SICCMWMWMACAIKFQNTRR", "amyloid nucleation score": "-0.519 ± 1.9"}
{"substance": "SIEKAILCSCVVSMPIMRGG", "amyloid nucleation score": "2.3 ± 0.081"}
{"substance": "SIFCFDYWQDIGTFMPSAVK", "amyloid nucleation score": "inactive"}
{"substance": "SIFMWLRNRC", "amyloid nucleation score": "inactive"}
{"substance": "SIFPRTCTKFFLGVTGFCFN", "amyloid nucleation score": "-0.322 ± 0.8"}
{"substance": "SIFSLLCVRLRGEVAPSRLM", "amyloid nucleation score": "inactive"}
{"substance": "SIGCIHARCAYEEFDMVVIC", "amyloid nucleation score": "inactive"}
{"substance": "SIISMDKDRTLAHTDHQV", "amyloid nucleation score": "inactive"}
{"substance": "SIKSSISIFKYF", "amyloid nucleation score": "inactive"}
{"substance": "SILDWYVSVVRRGA", "amyloid nucleation score": "inactive"}
{"substance": "SILWSPIDEGLIIVSSVTFL", "amyloid nucleation score": "inactive"}
{"substance": "SIMFVCQFGGGSRNSYGCLA", "amyloid nucleation score": "2.24 ± 0.078"}
{"substance": "SIMLFWVTGRLLRLSLLMLL", "amyloid nucleation score": "0.45 ± 0.21"}
{"substance": "SIRDYSFIASSC", "amyloid nucleation score": "inactive"}
{"substance": "SIRKHFPIRNMDELHSARN", "amyloid nucleation score": "inactive"}
{"substance": "SIRTWRVPRDCSAYFNGLSW", "amyloid nucleation score": "inactive"}
{"substance": "SISCCGIILIKNQASMPWAS", "amyloid nucleation score": "2.96 ± 0.079"}
{"substance": "SISMQVNHPEY", "amyloid nucleation score": "inactive"}
{"substance": "SISPFN", "amyloid nucleation score": "inactive"}
{"substance": "SISVNVCRWTRCLGTQLLSV", "amyloid nucleation score": "inactive"}
{"substance": "SITQSRLTP", "amyloid nucleation score": "-0.196 ± 0.36"}
{"substance": "SITTEVFDSQVNKLRELDGW", "amyloid nucleation score": "inactive"}
{"substance": "SIVQLNYTELAVKWSLVS", "amyloid nucleation score": "inactive"}
{"substance": "SIWSALSDLLLSKREE", "amyloid nucleation score": "inactive"}
{"substance": "SKAVSLCGLRLMFFPLYPGS", "amyloid nucleation score": "inactive"}
{"substance": "SKCDMCTYTQRFNDL", "amyloid nucleation score": "inactive"}
{"substance": "SKESISLECIHRVWFCGTGL", "amyloid nucleation score": "0.185 ± 0.38"}
{"substance": "SKFSCIRSYYG", "amyloid nucleation score": "inactive"}
{"substance": "SKGGADNNWLVIDCPLNRRM", "amyloid nucleation score": "inactive"}
{"substance": "SKGICNFMCVL", "amyloid nucleation score": "3.37 ± 0.077"}
{"substance": "SKHYN", "amyloid nucleation score": "inactive"}
{"substance": "SKKSDF", "amyloid nucleation score": "inactive"}
{"substance": "SKLCVVTFLCIQTCQYDLCV", "amyloid nucleation score": "inactive"}
{"substance": "SKLGYRRVSKCIGTDFN", "amyloid nucleation score": "inactive"}
{"substance": "SKNDIQARGSRKKCSNKGAK", "amyloid nucleation score": "inactive"}
{"substance": "SKPACRRFTLNDQKRKVEWI", "amyloid nucleation score": "inactive"}
{"substance": "SKPNMAELKLHFTGYPHPAK", "amyloid nucleation score": "inactive"}
{"substance": "SKRVIVWVTSLYWDV", "amyloid nucleation score": "inactive"}
{"substance": "SKSYVEF", "amyloid nucleation score": "inactive"}
{"substance": "SKVGSWYDAT", "amyloid nucleation score": "-0.506 ± 1.1"}
{"substance": "SLAINSYVCMYIHFQTTMRD", "amyloid nucleation score": "inactive"}
{"substance": "SLETMFMEKKRTSPNMVMLW", "amyloid nucleation score": "-0.42 ± 0.73"}
